No end group written: not given here.
T1: GST-huBDNFpro4
T1 construct: Printed on the sheet without the E ('GST-huBDNFpro4'); also called E4; GST-human proBDNF-E4 peptide
T1 peptide: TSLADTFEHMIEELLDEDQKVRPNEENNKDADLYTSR

T2: DH Peptide (human, also: biotinylated, position not given here)
T2 construct: Synthetic; also called polypeptide DH; Biotinylated DH peptide
T2 peptide: DAANMSMRVRRH

T3: LL peptide (human, also: biotinylated, position not given here)
T3 construct: Synthetic; also called Biotinylated LL peptide
T3 peptide: LLFLLEEYKNYL

T4: VP peptide (human, also: biotinylated, position not given here)
T4 construct: Synthetic; also called Biotinylated VP peptide
T4 peptide: VMLSSQVPLEPP

T5: GST-human proBDNF-E5 peptide (human)
T5 construct: not shown: GST (glutathione S-transferase) fusion partner
T5 chain: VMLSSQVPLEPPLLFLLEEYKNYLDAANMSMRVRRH

T6: GST-human proBDNF-E2 peptide (human, UniProt P23560 76-129)
T6 construct: not shown: GST (glutathione S-transferase) fusion partner
T6 sequence: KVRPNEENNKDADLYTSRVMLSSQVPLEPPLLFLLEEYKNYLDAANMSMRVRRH

T7: human proBDNF precursor protein (human, UniProt P23560 19-247)
T7 construct: also called human proBDNF precursor recombinant protein
T7 sequence (looked up): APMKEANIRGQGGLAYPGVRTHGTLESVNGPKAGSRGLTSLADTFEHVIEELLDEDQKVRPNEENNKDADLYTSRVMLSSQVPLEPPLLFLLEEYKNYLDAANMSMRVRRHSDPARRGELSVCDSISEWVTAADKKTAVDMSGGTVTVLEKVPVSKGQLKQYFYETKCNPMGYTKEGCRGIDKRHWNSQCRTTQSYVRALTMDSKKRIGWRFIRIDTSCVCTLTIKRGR


How the values were obtained:
GST-huBDNFpro4 = biological target: T1, GST-huBDNFpro4; experiment: ELISA, GST fusion protein coated, absorbance at 450 nm
Text: (§1) The five peptides were fused with GST and expressed, and then purified. The binding of antibodies 1D3 and 2H8 was detected by ELISA.

DH Peptide = biological target: T2, DH Peptide; experiment: ELISA, biotinylated peptide
Text: (§2) The E5 peptide was further divided into three equal peptide segments, each comprising 12 amino acids, namely VP peptide ([…], SEQ ID NO: 33), LL peptide ([…], SEQ ID NO: 34), DH Peptide ([…], SEQ ID NO: 35). Biotinylated VP peptide, LL peptide and DH peptide were synthesized in vitro by GL Biochemical (Shanghai) Ltd. and the binding of antibodies was detected by ELISA.

LL peptide = biological target: T3, LL peptide; experiment: ELISA, biotinylated peptide
Text: as §2

VP peptide = biological target: T4, VP peptide; experiment: ELISA, biotinylated peptide
Text: as §2

[1] = biological target: T5, GST-human proBDNF-E5 peptide; experiment: ELISA on GST fusion proteins
Text: as §1

[2] = biological target: T6, GST-human proBDNF-E2 peptide; experiment: ELISA on GST fusion proteins
Text: as §1

[3] = biological target: T7, human proBDNF precursor protein; experiment: SPR, Biacore T200, capture method, human proBDNF precursor protein at 0.25-8 nM
Procedure: The affinity and kinetic parameters of the 1D3 and 2H8 monoclonal antibodies were measured by the capture method using the Biacore T200 system (purchased from GE). The operation is referred to the instruction. The adopted concentrations of human proBDNF precursor protein were 0.25nM, 0.5nM, 1nM, 2nM, 4nM and 8nM, respectively. The Biacore T200 evaluation software was used to evaluate the obtained action curve and to calculate the KD value of affinity . FIG. 1A and FIG. 1B respectively show the kinetic curves of monoclonal antibodies 1D3 and 2H8 in the Biacore affinity determination experiment.

Binder | binding result (GST-huBDNFpro4) | binding result (DH Peptide) | binding result (LL peptide) | binding result (VP peptide) | binding result [1] | binding result [2] | Kd [3] | koff [3] | kon [3]
1D3 Monoclonal antibody (antibody, V domains shown, also called recombinant monoclonal antibody 1D3; fully human monoclonal antibody 1D3) VH: QVQLVESGGGLIQPGGSMRLSCAASGFSLSGYDMHWVRQIAGKGLEWVAGLGMEGDSYYSASVKGRFTISRQDAKNSLYLEMKDLGGGDTAVYYCLRDVHGFDVWGQGTTVTVSS VL: DVVMTQSPLSLPVTPGEPASISCRSSQSLLYSNGYTYLDWYLQRPGQSPQLLIYMGSNRASGVPDRFSGSGSGTDFTLKISRVEAEDVGVYYCMQALQTPLTFGGGTKLEIKR | no binding | binds | no binding | no binding | binds | binds |  |  | 
2H8 Monoclonal antibody (antibody, V domains shown, also called recombinant monoclonal antibody 2H8) VH: EVQLVETGGGLVQPGGSLRLSCAASGFTFSSYGMHWVRQAPGKGLEWVSVISGSGDSTYYAESVKGRFTISRDNARNTVYLQMNSLRAEDTAVYYCASGILTGYVFDYWGKGTMVTVSS VL: DVVMTQSPLSLPVTLGQPASISCRSSQSLVSNDGNTYLNWFQQRPGQPPRRLIYMVSKWDSGVPDRFSGSGSGTDFTLRISRVEAEDVGVYYCMQSTHWPPTFGGGTKLEIKR | no binding | binds | no binding | no binding | binds |  | 1.91 nM | 0.00594 s⁻¹ | 3.1e+06 M⁻¹ s⁻¹

From US20220064274A1 (SHANGHAI YILE BIOTECHNOLOGY, published 2022)
